Experimental data reported in paper doi:10.1101/712158.

Columns and labels:
[1] = target: L19-hIL2 (human); experiment: SEC
[2] = target: L19-mTNF (murine); experiment: SEC

| stoichiometry N [1] | stoichiometry N [2] | Substance |
| --- | --- | --- |
| 2 |  | L19-hIL2 |
|  | 3 | L19-mTNF |
